Assays:
MDA-MB-231 tumors [1] = tested on: MDA-MB-231 tumors; design: species or system BALB/c nude mice; conditions: mouse, in vivo
Procedure: (§1) Animal experiments were approved by the ethics committee of Qingdao University, and the management of animals followed ethical standards. We built an MDA-MB-231 tumor model using four- to- five-week-old female BALB/c nude mice (Shanghai SLAC Laboratory Animal Co., Ltd, China). To do so, 0.1 mL of a cell suspension (50 µL PBS + 50 µL Matrigel) containing 1 × 10^6 MDA-MB-231 cells was subcutaneously inoculated into the right axilla of each mouse.
When tumor diameters reached 0.8–1.0 cm, 24 tumor-bearing nude mice were selected for an in vivo biodistribution experiment. Each nude mouse was injected with approximately 1480 kBq/200 μL ^99mTc-pHLIP (Var7) or ^99mTc-kVar7 through the tail vein. The mice were sacrificed humanely 1 h, 2 h, 4 h, and 6 h after injection, and their tissues and organs, such as the brain, heart, lung, liver, kidney, stomach, small intestine, blood, muscle, bone, and tumor, were weighed and measured for their radioactivity count. The results are expressed as the percentage of injected dose per gram of tissue (%ID/g).

MDA-MB-231 cells = assay: Binding of labeled peptides to MDA-MB-231 cells at different pH values; assay type: cell-based, human; conditions: n=3
Procedure: a. When MDA-MB-231 cells grew to more than 90% confluence, they were digested. The cell concentration was adjusted to approximately 1.0 × 10^5 cells/mL, and 1 mL of the cell solution was added to each well of a 12-well plate and cultured overnight in a 37°C cell incubator.
b. The medium was discarded, and the cells were washed with PBS twice. Then, 2 mL of fresh medium and 37 kBq ^99mTc-pHLIP (Var7) or ^99mTc-kVar7 (20-30 μL) were added to each well. We adjusted the pH values of the wells to four levels (pH 7.4, 7.0, 6.5, and 6.0).
c. After culturing for 30, 60, 90, 120, and 180 min, the supernatant was aspirated into a supernatant tube, and each well was washed two times with PBS at the corresponding pH (7.4, 7.0, 6.5, or 6.0). The cleaning solution was also added into the supernatant tube. The cells were digested fully with 0.25% trypsin, and the cell suspension was aspirated into a cell tube and washed twice with PBS. The cleaning solution was also added to the cell tube. A γ counter was applied to measure the radioactivity count of the cell tube (B) and supernatant tube (F). The cell-binding fraction of ^99mTc-pHLIP (Var7) or ^99mTc-kVar7 = B/(B+F) × 100%.

MDA-MB-231 tumors [2] = assay type: in vivo, BALB/c nude mice; conditions: 1, 2, 4, and 6 h after tail vein injection of about 11.1 MBq/200 μL, n = 3
Procedure: as §1
When tumor diameters reached 0.8–1.0 cm, six tumor-bearing nude mice were selected for imaging. Each nude mouse was injected with approximately 11.1 MBq/200 μL ^99mTc-pHLIP (Var7) or ^99mTc-kVar7 through the tail vein. The tumor-bearing mice were anesthetized with 2% isoflurane at 1 h, 2 h, 4 h, and 6 h after injection and were fixed on the imaging bed of a small-animal SPECT/CT imaging system in the prone position. A pinhole collimator was applied. The main parameters were a matrix size of 256 × 256, magnification power of 1.45, and acquisition time at each time point of 10 min.

[3] = assay type: in vitro ADME, human
Procedure: (§2) The radiochemical purity of ^99mTc-pHLIP (Var7) and ^99mTc-kVar7 was determined by thin-layer chromatography (TLC). A thin polyamide layer was used as the stationary phase, and acetonitrile was used as the developing solvent. A sufficient amount of the labeled product was aspirated through a capillary pipette and spotted at the origin of the thin polyamide layer. The thin polyamide layer was air-dried and vertically placed in a test tube with developing solvent. The saturated thin polyamide layer was removed, dried, and placed on the TLC scanner for testing.
(§3) ^99mTc-pHLIP (Var7) and ^99mTc-kVar7 were placed in PBS at room temperature (25°C) and in fresh human serum at 37°C. Samples were taken to test the radiochemical purity at 1, 4, 6, and 24 h after labeling.

[4] = In vitro stability in PBS at room temperature (radiochemical purity by TLC); assay type: physicochemical; conditions: room temperature (25°C), 24 h after labeling, TLC on polyamide layer with acetonitrile
Procedure: as §2, §3

For “GaGG-GABA-ACEEQNPWARYLEWLFPTETLLLEL-NH2 [^99mTc-pHLIP (Var7)]”, the blood clearance (MDA-MB-231 tumors [1]) was “slow blood clearance”, the “tumor/nontumor (T/NT) ratio, trend over time” value (MDA-MB-231 tumors [1]) was “increased over time” and the “binding fraction to MDA-MB-231 cells” value (MDA-MB-231 cells; pH 6.0, 180 min, 37 kBq per well, γ counter, B/(B+F) × 100%, mean ± SD) was 3.33 ± 0.12%. For the same substance, the “binding fraction to MDA-MB-231 cells” value (MDA-MB-231 cells; pH 6.5, 180 min, 37 kBq per well, γ counter, B/(B+F) × 100%, mean ± SD) was 3.02 ± 0.04%, the “binding fraction to MDA-MB-231 cells” value (MDA-MB-231 cells; pH 7.0, 180 min, 37 kBq per well, γ counter, B/(B+F) × 100%, mean ± SD) was 2.87 ± 0.03% and the “binding fraction to MDA-MB-231 cells” value (MDA-MB-231 cells; pH 7.4, each time point (30, 60, 90, 120, and 180 min)) was “remained low”. For the same substance, the “SPECT/CT imaging of tumors” value (MDA-MB-231 tumors [2]) was “clearly imaged at each time point”, the “radiochemical purity in fresh human serum at 24 h” value [3] was > 96% and the “radiochemical purity in PBS at 24 h” value [4] was > 99%.
With “GaGG-GABA-ACEEQNPWARYLKWLFPTKTLLLKL-NH2 [^99mTc-kVar7, technetium-99m-labeled control peptide kVar7, pH-insensitive, with N4 chelating group and GABA spacer, reference compound]” the blood clearance (MDA-MB-231 tumors [1]) was “slow blood clearance”, the “tumor/nontumor (T/NT) ratio, trend over time” value (MDA-MB-231 tumors [1]) was “no significant increasing trend” and the “binding fraction to MDA-MB-231 cells” value (MDA-MB-231 cells; all tested pH values (6.0, 6.5, 7.0, and 7.4), each time point (30, 60, 90, 120, and 180 min)) was “remained low”. For the same substance, the “SPECT/CT imaging of tumors” value (MDA-MB-231 tumors [2]) was “not imaged”, the “radiochemical purity in fresh human serum at 24 h” value [3] was > 96% and the “radiochemical purity in PBS at 24 h” value [4] was > 99%.

— publication PMC9069674, “Synthesis and Evaluation of Technetium-99m-Labeled pH (Low) Insertion Peptide Variant 7 for Early Diagnosis of MDA-MB-231 Triple-Negative Breast Cancer by Targeting the Tumor Microenvironment” (Frontiers in Oncology, 2022)
